In article PMC3163267, “Structure and Organisation of SinR, the Master Regulator of Biofilm Formation in Bacillus subtilis” (Journal of Molecular Biology, 2011):

B1: single-site SinRBM duplex (dsDNA)
DNA 1: AATTTTTCGTTCTTTATAAAAT
DNA 2: ATTTTATAAAGAACGAAAAATT
B2: SinI (natural protein, B. subtilis, UniProt P23308 1-57, looked up)
chain: MKNAKQEHFELDQEWVELMVEAKEANISPEEIRKYLLLNKKSAHPGPAARSHTVNPF
notes: Cloned into the same modified pET28 vector and cleaved as described for SinR, so a residual N-terminal Gly-Pro-Ala probably remains (surmised); Dimer by SEC-MALLS
B3: SinR(74–111) (domain or fragment, B. subtilis, UniProt P06533 74-111, looked up)
chain: LDSEWEKLVRDAMTSGVSKKQFREFLDYQKWRKSQKEE
notes: SinR, Bacillus subtilis, C-terminal domain, residues 74–111; A selenomethionine form was also crystallised; also called C-terminal domain of SinR; not shown: His6, N-terminal, cleaved
B4: tandem repeat SinRBM duplex (dsDNA)
DNA 1: GTCGTTCTCTCGTTCTCTATAA
DNA 2: TTATAGAGAACGAGAGAACGAC
B5: SinR (natural protein, B. subtilis, UniProt P06533 1-111, looked up)
chain: MIGQRIKQYRKEKGYSLSELAEKAGVAKSYLSSIERNLQTNPSIQFLEKVSAVLDVSVHTLLDEKHETEYDGQLDSEWEKLVRDAMTSGVSKKQFREFLDYQKWRKSQKEE
notes: After cleavage with human rhinovirus 3C protease a residual N-terminal Gly-Pro-Ala is expected to remain; Tetramer by SEC-MALLS; also called intact SinR; full-length SinR; not shown: His6, N-terminal, cleaved

How the values were obtained:
SinR [1] = molecular target: T1, SinR (Bacillus subtilis, UniProt P06533 1-111); assay: fluorescence anisotropy; FA: 10 mM Hepes pH 8.0, 100 mM NaCl, 1 mM DTT, 1 mM EDTA, 5 nM HEX-DNA, 25 C; SPR: 10 mM Hepes pH 8.0, 150 mM NaCl, 3 mM EDTA, 0.05% P20; conditions: protein: recombinant; tags: N-terminal Gly-Pro-Ala left after 3C cleavage of His6 tag; chain copies: 4; label: 5' HEX on one strand; 22 bp
T1 sequence: B5 chain

SinR [2] = molecular target: B5; assay: SEC-MALS; SEC-MALLS on Superdex 75 HR 10/30; 25 mM Tris pH 8.5, 200 mM NaCl, 0.5 mM EDTA; 100 µl samples of 1 mg/ml protein or an equimolar mixture of SinR and SinI; conditions: both partners purified
[3] = molecular target: the molecule itself; assay: as above

Binder | Kd (SinR [1]) [µM] | stoichiometry N (SinR [2]) | stoichiometry N [3]
B1 | 2.8 | – | –
B2 | – | 1 | 2
B3 | – | – | 4
B4 | 3.7 | – | –
B5 | – | – | 4
